From patent US20160046678A1 (ZYNGENIA, published 2016)
Ends that are not written are not given here.

Target: T1, Angiopoietin-2 (Ang2) (human, UniProt O15123 19-496, biotin label in Examples 22-24)
T1 construct: also called rhAng2; recombinant Ang2
T1 sequence (looked up): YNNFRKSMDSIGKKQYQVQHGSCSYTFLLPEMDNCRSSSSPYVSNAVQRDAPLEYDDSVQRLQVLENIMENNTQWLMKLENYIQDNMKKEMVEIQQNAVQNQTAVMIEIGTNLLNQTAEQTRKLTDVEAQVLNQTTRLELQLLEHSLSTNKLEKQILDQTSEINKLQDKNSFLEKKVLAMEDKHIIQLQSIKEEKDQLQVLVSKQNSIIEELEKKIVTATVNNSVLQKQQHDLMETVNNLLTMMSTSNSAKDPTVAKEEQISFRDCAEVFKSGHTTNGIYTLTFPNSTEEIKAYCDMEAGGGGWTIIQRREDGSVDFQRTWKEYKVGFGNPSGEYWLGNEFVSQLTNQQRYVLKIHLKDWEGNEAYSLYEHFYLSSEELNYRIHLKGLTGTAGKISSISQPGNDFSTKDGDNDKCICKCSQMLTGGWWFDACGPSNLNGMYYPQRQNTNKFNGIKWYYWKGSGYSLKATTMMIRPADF
Test: ELISA, MRD-MBP fusions on rhAng2-coated wells; references L17D and Lm32 KtoS MBP fusions

B1: 2xLm32 MRD-MBP fusion (other)
chain: MGAQTNFMPMDNDELLLYEQFILQQGLEGGSGSTASSGSGSSLGAQTNFMPMDNDELLLY
modifications: also: fused to maltose binding protein, MRD downstream of malE, two copies of Lm32
notes: also called Lm32 dimer; LM-2x-32; not shown: MRD inserted downstream of malE
- fold higher affinity: > 10 fold
